Results reported in US20210292414A1 (H LUNDBECK A S, published 2021).
Where a chain is given by its changes, count along the chain named. Read-outs that look alike come from different tables or passages of the source.

Legend:
Assay in all cases: BLI (Octet384RED)
[1] = biological target: T1, Sortilin SORTECDBAP_hB01-05 (human/tetraodon chimera)
T1 construct: Shuffle construct: chimeric human/tetraodon Sortilin ECD with BAP tag
T1 chain: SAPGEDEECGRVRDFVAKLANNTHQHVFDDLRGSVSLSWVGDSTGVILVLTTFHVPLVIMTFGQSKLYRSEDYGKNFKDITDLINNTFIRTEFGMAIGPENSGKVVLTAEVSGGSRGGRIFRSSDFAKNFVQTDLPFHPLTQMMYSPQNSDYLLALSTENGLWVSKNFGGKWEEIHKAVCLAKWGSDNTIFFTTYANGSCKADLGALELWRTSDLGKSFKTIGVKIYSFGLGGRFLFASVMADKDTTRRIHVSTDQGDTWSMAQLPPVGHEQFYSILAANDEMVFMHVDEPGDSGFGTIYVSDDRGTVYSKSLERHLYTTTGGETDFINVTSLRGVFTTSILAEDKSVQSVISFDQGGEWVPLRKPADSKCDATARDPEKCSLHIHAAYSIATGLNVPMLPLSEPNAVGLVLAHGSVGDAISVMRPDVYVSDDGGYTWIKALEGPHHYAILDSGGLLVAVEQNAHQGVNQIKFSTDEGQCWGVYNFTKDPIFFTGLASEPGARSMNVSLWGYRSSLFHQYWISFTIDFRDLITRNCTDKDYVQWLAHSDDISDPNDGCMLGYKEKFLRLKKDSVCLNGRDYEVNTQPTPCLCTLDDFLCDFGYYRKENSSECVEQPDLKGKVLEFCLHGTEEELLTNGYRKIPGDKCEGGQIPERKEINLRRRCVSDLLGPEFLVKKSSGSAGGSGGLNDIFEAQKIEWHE

[2] = biological target: T2, Sortilin SORTECDBAP_tetra (tetraodon)
T2 construct: Fully tetraodon Sortilin ECD with BAP tag; also called tetraodon; tetraodon Sortilin
T2 chain: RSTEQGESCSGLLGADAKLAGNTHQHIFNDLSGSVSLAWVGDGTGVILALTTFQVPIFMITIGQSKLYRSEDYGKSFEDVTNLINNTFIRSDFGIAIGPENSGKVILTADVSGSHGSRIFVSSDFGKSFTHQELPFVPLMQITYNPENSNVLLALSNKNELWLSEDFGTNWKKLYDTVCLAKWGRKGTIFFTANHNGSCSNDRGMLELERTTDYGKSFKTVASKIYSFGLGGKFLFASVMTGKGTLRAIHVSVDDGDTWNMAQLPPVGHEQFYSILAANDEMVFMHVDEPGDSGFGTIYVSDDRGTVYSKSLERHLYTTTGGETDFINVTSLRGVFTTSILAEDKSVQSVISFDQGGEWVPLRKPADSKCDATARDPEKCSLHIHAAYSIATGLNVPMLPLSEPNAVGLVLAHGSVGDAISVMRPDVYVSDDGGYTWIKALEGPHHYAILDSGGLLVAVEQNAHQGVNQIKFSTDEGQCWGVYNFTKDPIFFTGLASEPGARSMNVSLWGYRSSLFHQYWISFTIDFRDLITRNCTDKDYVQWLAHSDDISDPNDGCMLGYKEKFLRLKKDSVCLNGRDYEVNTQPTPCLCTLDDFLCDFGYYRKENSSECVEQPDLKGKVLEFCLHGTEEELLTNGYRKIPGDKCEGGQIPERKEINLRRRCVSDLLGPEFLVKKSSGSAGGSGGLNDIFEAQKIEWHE

[3] = biological target: T1, Sortilin SORTECDBAP_hB01-05
[4] = biological target: T3, Sortilin hSORTECDBAP (human, UniProt Q99523 78-755)
T3 sequence: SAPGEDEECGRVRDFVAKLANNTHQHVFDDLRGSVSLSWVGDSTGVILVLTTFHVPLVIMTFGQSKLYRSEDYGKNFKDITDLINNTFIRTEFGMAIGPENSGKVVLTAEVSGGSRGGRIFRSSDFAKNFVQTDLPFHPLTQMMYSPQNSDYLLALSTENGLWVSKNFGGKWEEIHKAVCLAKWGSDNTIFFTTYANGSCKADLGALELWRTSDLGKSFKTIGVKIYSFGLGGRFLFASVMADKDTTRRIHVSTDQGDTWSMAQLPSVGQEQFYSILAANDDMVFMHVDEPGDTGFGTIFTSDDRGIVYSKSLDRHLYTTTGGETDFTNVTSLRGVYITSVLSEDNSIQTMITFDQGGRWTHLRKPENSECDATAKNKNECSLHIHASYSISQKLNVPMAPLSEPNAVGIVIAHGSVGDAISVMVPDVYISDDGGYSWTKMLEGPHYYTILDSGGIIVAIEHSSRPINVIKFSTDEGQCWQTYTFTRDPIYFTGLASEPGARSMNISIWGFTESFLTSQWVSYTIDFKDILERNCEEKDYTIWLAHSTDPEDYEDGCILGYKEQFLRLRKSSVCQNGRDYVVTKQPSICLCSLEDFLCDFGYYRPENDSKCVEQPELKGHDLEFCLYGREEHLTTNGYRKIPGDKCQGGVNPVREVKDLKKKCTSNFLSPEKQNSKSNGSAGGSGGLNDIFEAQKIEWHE

[5] = biological target: T4, Sortilin SORTECDBAP_hB12390 (human/tetraodon chimera)
T4 construct: Shuffle construct: chimeric human/tetraodon Sortilin ECD with BAP tag
T4 chain: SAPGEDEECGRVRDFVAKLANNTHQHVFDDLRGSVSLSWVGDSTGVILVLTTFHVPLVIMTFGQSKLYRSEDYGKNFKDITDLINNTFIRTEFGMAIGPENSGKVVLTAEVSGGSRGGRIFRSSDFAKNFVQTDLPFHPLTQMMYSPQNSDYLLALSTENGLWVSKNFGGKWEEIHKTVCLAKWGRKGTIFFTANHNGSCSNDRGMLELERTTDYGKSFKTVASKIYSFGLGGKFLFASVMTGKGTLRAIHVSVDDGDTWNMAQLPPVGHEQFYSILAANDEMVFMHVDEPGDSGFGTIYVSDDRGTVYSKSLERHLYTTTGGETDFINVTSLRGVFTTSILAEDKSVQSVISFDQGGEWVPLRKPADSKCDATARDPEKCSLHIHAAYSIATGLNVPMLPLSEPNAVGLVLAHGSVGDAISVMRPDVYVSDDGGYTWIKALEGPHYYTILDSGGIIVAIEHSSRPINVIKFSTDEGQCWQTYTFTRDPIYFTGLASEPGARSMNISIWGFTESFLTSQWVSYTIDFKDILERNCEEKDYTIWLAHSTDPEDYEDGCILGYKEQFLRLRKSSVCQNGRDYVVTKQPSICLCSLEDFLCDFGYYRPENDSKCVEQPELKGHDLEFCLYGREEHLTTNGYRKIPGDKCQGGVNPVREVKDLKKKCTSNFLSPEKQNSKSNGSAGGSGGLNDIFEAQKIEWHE

B1: IgG1-6003-910 (antibody, V domains shown)
VH: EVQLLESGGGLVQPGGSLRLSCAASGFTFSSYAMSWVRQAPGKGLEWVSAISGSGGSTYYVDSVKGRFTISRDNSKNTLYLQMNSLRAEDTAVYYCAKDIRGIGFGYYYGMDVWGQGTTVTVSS
VL: EIVLTQSPATLSLSPGERATLSCRASQSVSSYLVWYQQKPGQAPRLLIYDASNRATGIPARFSGSGSGTDFTLTISSLEPEDFAVYYCQQRSNWPPTFGQGTRLEIK
notes: also called Antibody 6003-910
Question: Does B1 bind [1]?
Answer: no binding

B2: IgG1-6003-972 (antibody, V domains shown)
VH: QVQLVESGGGVVQPGRSLRLSCAASGFTFSDYAMHWVRRAPGKGLEWVVVISYDGSNKYYADSVKGRFTISRDNSKNTLYLQMNSLRAEDTAVYYCARDPSGGWYFDLWGRGTLVTVSS
VL: B1 VL with V34A, V85L, N93H, P96R, R103K, L104V
notes: also called Antibody 6003-972
Question: Does B2 bind [1]?
Answer: no binding

B3: Antibody 6003-030 (antibody, human IgG1, V domains shown)
VH: EVQVLESGGGLVQPGGSLRLSCAASGFTFSSYAMSWVRQAPGKGLEWVSTISGRGGNTYYADSVKGRFTISRDNSKNTLYLQMDSLRAEDTAVYYCAIIPSLYWYFDLWGRGTLVTVSS
VL: B1 VL with V34A, P96L, Q100G, R103K, L104V
notes: Human antibody (HuMab); also called antibody 30; mAb30
Question: Does B3 bind [2]?
Answer: no binding

Question: Does B3 bind [3]?
Answer: no binding

Question: What about the EC50 [4] of the same binder?
Answer: 0.89 ng/mL

Question: What about the EC50 [5] of the same binder?
Answer: 0.82 ng/mL

B4: Antibody 6003-1286 (antibody, human IgG1, V domains shown)
VH: B3 VH with V4L, D84N, T91A, I98N, P100Y, L102H
VL: B1 VL with S30N, V34A, P96L, Q100G, R103K, L104V
Question: Does B4 bind [2]?
Answer: no binding

Question: Does B4 bind [3]?
Answer: no binding

Question: What about the EC50 [4] of the same binder?
Answer: 1.02 ng/mL

Question: What about the EC50 [5] of the same binder?
Answer: 0.86 ng/mL

B5: Antibody 6003-028 (antibody, human IgG1, V domains shown)
VH: B3 VH with V4L, N57S, D84N, I98N, I99L, P100Y, L102N
VL: B1 VL with Y32F, V34A, P96L, Q100G, R103K, L104V
Question: Does B5 bind [2]?
Answer: no binding

Question: Does B5 bind [3]?
Answer: no binding

Question: And the EC50 [4]?
Answer: 1.75 ng/mL

Question: What about the EC50 [5] of the same binder?
Answer: 1.86 ng/mL

B6: Antibody 6003-056 (antibody, human IgG1, V domains shown)
VH: B3 VH with A23V, S35H, T50A, N57S, D84N
VL: B1 VL with Y32F, V34A, P96L, Q100G, R103K, L104V
Question: Does B6 bind [2]?
Answer: no binding

Question: Does B6 bind [3]?
Answer: no binding

Question: What about the EC50 [4] of the same binder?
Answer: 1.26 ng/mL

Question: What about the EC50 [5] of the same binder?
Answer: 1.42 ng/mL

B7: Antibody 6003-083 (antibody, human IgG1, V domains shown)
VH: B3 VH with V4L, N57S, D84N, I99V, P100A, S101T, L102M
VL: B1 VL with V34A, P96I
Question: Does B7 bind [2]?
Answer: no binding

Question: Does B7 bind [3]?
Answer: no binding

Question: What about the EC50 [4] of the same binder?
Answer: 0.77 ng/mL

Question: What about the EC50 [5] of the same binder?
Answer: 0.86 ng/mL

B8: Antibody 6003-900 (antibody, human IgG1, V domains shown)
VH: EVQLVESGGGLVKPGGSLRLSCAASGFTFSSYSMNWVRQAPGKGLEWVSSISSSSSYIYYADSVKGRFTISRDNAKNSLYLQMNSLRAEDTAVYYCARRGSGSYDAFDIWGQGTMVTVSS
VL: EIVLTQSPDFQSVTPKEKVTITCRASQSIGYSLHWYQQKPDQSPKLLIKYASQSFSGVPSRFSGSGSGTDFTLTINSLEAEDAAAYYCHQSSSLPLTFGGGTKVEIK
notes: also called antibody 900; Sortilin human antibody 900
Question: Does B8 bind [1]?
Answer: no binding

B9: Antibody 6003-799 (antibody, human IgG1, V domains shown)
VH: QVQLVESGGGVVQPGRSLRLSCAASGFTFSSYGMHWVRQAPGKGLEWVTVISYDGSNKYYADSVKGRFTISRDNSKNTLYLQMNSLRAEDTAVYYCAKLTGDAFDIWGQGTMVTVSS
VL: EIVLTQSPATLSLSPGERATLSCRASQSVSSYLVWYQQKPGQAPRLLIYHASNRATGIPARFSGSGSGTDFTLTISSLEPEDFAVYYCQQRSNWPRITFGQGTRLEIK
Question: Does B9 bind [1]?
Answer: no binding

B10: Antibody 6003-822 (antibody, human IgG1, V domains shown)
VH: EVQLLESGGGLVQPGESLTLSCAASGFTLSSYAMSWVRQAPGKGLEWVSSISGRLGTTYYAASVKGRFTISRDNSKNTLYLQMNSLRAEDTAIYSCAKAPSDAFDIWGQGTMVTVSS
VL: B9 VL with V34A, H50D, R96I, I97F, Q101P, R104K, L105V, E106D
Question: Does B10 bind [1]?
Answer: no binding

B11: Antibody 6003-381 (antibody, human IgG1, V domains shown)
VH: B9 VH with S31N, G33V, T49A, V50A, D54N, S56N, Y94S, L99G, T100L, G101N
VL: not shown
Question: Does B11 bind [2]?
Answer: no binding

Question: Does B11 bind [3]?
Answer: no binding

Question: And the EC50 [4]?
Answer: 1.82 ng/mL

Question: What about the EC50 [5] of the same binder?
Answer: 1.93 ng/mL

B12: Antibody 6003-886 (antibody, human IgG1, V domains shown)
VH: QVQLVQSGAEVKKPGASVKVSCKASGYTFTKYGISWVRQAPGQGLEWMGWISAYNGNTNYAQKLQDRVTMTTDTFTSTAYMELRSLRSDDTAVYFCARDGPLTGDFTFYGMDVWGQGTTVTVSS
VL: B9 VL with V34A, H50D, R96P, I97F, Q101P, R104K, L105V, E106D
Question: Does B12 bind [1]?
Answer: no binding

B13: IgG1-6003-408 (antibody, V domains shown)
VH: EVQLVESGGGLVKPGGSLRLSCAASGFTFSSYSMNWVRQAPGKGLEWVSSISSSSSYIYYADSVKGRFTISRDNAKNSLYLQMNSLRAEDTAVYYCARRRIAAAGTGYGAFDIWGQGTMVTVSS
VL: ARQLTQSPSSLSASVGDRVTITCRASQGITSALAWYQQKPGKVPKLLIYDASSLESGVPSRFSGSGSGTDFTLTISSLQPEDFATYYCQQFNGYPMFSFGQGTKLEII
notes: also called Antibody 6003-408
Question: What does the source list for B13?
Answer: binding result [2]: no binding; binding result [3]: no binding; EC50 [4]: 1.93 ng/mL; EC50 [5]: 2.21 ng/mL

B14: Antibody 6003-1277 (antibody, V domains shown)
VH: QVQLVQSGAEVKKPGASVKVSCKTSGYTFTHYGISWVRQAPGQGLEWMGWINTYNGNTKYAQKLQGRVTMTTDTSTSTAYMELRSLRSDDTAVYYCASLGRNFDYWGQGTLVTVSS
VL: not shown
Question: Which results are given for B14?
Answer: binding result [2]: no binding; binding result [3]: no binding; EC50 [4]: 3.03 ng/mL; EC50 [5]: 3.63 ng/mL
